PMC5295013

Test system: Gp90 D234A (DNA polymerase, exonuclease-deficient) (Pseudomonas aeruginosa phage PaP1)
Assay: SPR
Conditions: SPR (Biacore 3000, SA chip, steady-state fit): 40 mM Tris-HCl pH 7.5, 10 mM DTT, 50 mM potassium glutamate, room temperature, 20-600 nM protein, ternary assays …

Row | Sequence | Kd (30 mM Mg2+, 1 mM dCTP (ternary complex), primer 3'-terminal dideoxycytidine (ddC, chain terminator)) [nM] | Kd (no Mg2+, no dNTP (binary complex), primer 3'-terminal dideoxycytidine (ddC, chain terminator)) [nM] | Kd (30 mM Mg2+, 1 mM dATP (ternary complex, mispair), 8-oxoG at template position 35 from 5' end (28th from 3' end, first templating base), primer 3'-terminal ddC) [nM] | Kd (30 mM Mg2+, 1 mM dCTP (ternary complex), 8-oxoG at template position 35 from 5' end (28th from 3' end, first templating base), primer 3'-terminal ddC) [nM] | Kd (no Mg2+, no dNTP (binary complex), 8-oxoG at template position 35 from 5' end (28th from 3' end, first templating base), primer 3'-terminal ddC) [nM]
1 | TTTGCTACAGAGTTATGGTGACGATACGTC / TGAATTCTAATGTAGTATAGTAATCCGCTCTATCGGACGTATCGTCACCATAACTCTGTAGC [30-mer(dd)/62-mer G primer-template] | 11 | 108 | – | – | –
2 | TTTGCTACAGAGTTATGGTGACGATACGTC / TGAATTCTAATGTAGTATAGTAATCCGCTCTATCGGACGTATCGTCACCATAACTCTGTAGC [30-mer(dd)/62-mer 8-oxoG primer-template] | – | – | 45 | 34 | 116
